Legend:
PsLAR = biological target: T1, PsLAR (Lathyrus oleraceus, UniProt A0A076G360); experiment: coupled PsDFR/PsLAR assay, LC-MS of product; format: biochemical; conditions: NADPH, pH 6, 40°C
T1 construct: gene LAR
T1 sequence (A0A076G360 1-351): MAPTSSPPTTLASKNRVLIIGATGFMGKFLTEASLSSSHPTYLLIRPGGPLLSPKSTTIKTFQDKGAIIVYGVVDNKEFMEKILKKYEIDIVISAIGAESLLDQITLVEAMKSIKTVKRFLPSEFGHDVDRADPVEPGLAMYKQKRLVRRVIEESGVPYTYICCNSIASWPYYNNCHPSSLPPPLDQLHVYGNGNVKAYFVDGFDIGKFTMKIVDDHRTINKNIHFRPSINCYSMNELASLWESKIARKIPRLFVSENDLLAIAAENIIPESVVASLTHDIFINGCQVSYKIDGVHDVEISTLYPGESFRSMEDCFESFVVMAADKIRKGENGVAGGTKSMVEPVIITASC

[1] = substrate: Oc1cc(O)c2cc(O)c(-c3cc(O)c(O)c(O)c3)[o+]c2c1; experiment: HPLC-DAD of cis-flavan-3-ol product, Michaelis-Menten; format: biochemical, Lathyrus oleraceus; conditions: 20 mM NADPH, 100 mM Tris-HCl pH 7, 42°C, 20 min
From the text: (§1) HPLC-DAD of cis-flavan-3-ol product, Michaelis-Menten on PsANR

[2] = substrate: Oc1ccc(-c2[o+]c3cc(O)cc(O)c3cc2O)cc1; experiment: as above; format: biochemical, Lathyrus oleraceus; conditions: 20 mM NADPH, 100 mM Tris-HCl pH 7, 42°C, 20 min
From the text: as §1

[3] = substrate: Oc1cc(O)c2cc(O)c(-c3ccc(O)c(O)c3)[o+]c2c1; experiment: as above; format: biochemical, Lathyrus oleraceus; conditions: 20 mM NADPH, 100 mM Tris-HCl pH 7, 42°C, 20 min
From the text: as §1

Oc1cc(O)c2c(c1)O[C@H](c1cc(O)c(O)c(O)c1)[C@@H](O)C2 [gallocatechin]
coupled PsDFR/PsLAR assay, LC-MS of product (PsLAR; substrate made in situ from dihydromyricetin by PsDFR): co-incubation of PsDFR and PsLAR could synthesize compounds displaying [M + H]^+ ion for CT

Oc1cc(O)c2c(c1)O[C@H](c1ccc(O)c(O)c1)[C@@H](O)C2 [(+)-catechin]
coupled PsDFR/PsLAR assay, LC-MS of product (PsLAR; substrate made in situ from dihydroquercetin by PsDFR): Only co-incubation of PsDFR and PsLAR could synthesize compounds displaying [M + H]^+ ion for CT

B1: PsANR (Lathyrus oleraceus) (protein)
chain: MASIKEVGKKKACVIGGTGFVASILIKQLLEKGYAVNTTVRDLDNPKKISHLVALKSLGELNLFKAELTVDGDFDAPIAGCELVFQLATPVNFASQDPENDMIKPAIKGVLNVLKACAKAKEVKRVILTSSAAAVTINELKGEDHVMDETNWSDVEFLNAAKPPTWGYPASKVLAEKAAWEFAEKNDIDLITVIPTLTMGPYLTQDMPSSVGLAMSLITGNDFLVNALKGMQFLSGSISITHVEDICRAHIFVAEKESASGRYICCAQNTCVPELAKFFSKRYPQYKVPTKFEDCPSKAKLIIFFEKLIKEGFGFKYGIGETYAQTIEYLKIKGVLKK
Km [1]: 183.6 ± 0.2 µM | kcat/Km [1]: 4.3 M⁻¹ s⁻¹ | Km [2]: 39.0 ± 0.1 µM | kcat/Km [2]: 30.7 M⁻¹ s⁻¹ | Km [3]: 37.0 ± 0.2 µM | kcat/Km [3]: 13.5 M⁻¹ s⁻¹

Reference: PMC4175280, “Characterization of proanthocyanidin metabolism in pea (Pisum sativum) seeds” (BMC Plant Biology, 2014)
